Drawing on the supplement of paper PMC11811203, this text covers THAP1 transcriptional activity for 14 variants.

The labels stand for the following.
B1: THAP1; numbered along this chain (parent)
chain: MVQSCSAYGCKNRYDKDKPVSFHKFPLTRPSLCKEWEAAVRRKNFKPTKYSSICSEHFTPDCFKRECNNKLLKENAVPTIFLCTEPHDKKEDLLEPQEQLPPPPLPPPVSQVDAAIGLLMPPLQTPVNLSVFCDHNYTVEDTMHQRKRIHQLEQQVEKLRKKLKTAQQRCRRQERQLEKLKEVVHFQKEKDDVSERGYVILPNDYFEIVEVPA

The variants in the series derive from B1. Description: THAP1 transcriptional activity (GFP+/GFP- enrichment relative to wild-type constructs) (ratio to WT); higher = more THAP1 activity (PSMB5 reporter activation). The settings on record: with PSMB5 promoter-GFP reporter. Here is the method:
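Deep mutational scan of human THAP1. Site-saturation single amino acid variant library (residues 2-213) was expressed by lentivirus at MOI ~0.3 in THAP1-knockout HEK-293T cells carrying an endogenous PSMB5 promoter-GFP knock-in reporter. Five days post-transduction, BFP+ cells were FACS-sorted into GFP dim and GFP bright populations and variants were counted by Illumina sequencing. Activity is the GFP-bright/GFP-dim read fold change, mean of 2 replicates, divided by the mean fold change of wild-type (synonymous) constructs in the same screen pool; WT = 1.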
With MVQSCSAYGCKNRYDKDKPVSFHKFPLTRPSLCKEWEAAVRRKNFKPTKYSSICSEHFAPDCFKRECNNKLLKENAVPTIFLCTEPHDKKEDLLEPQEQLPPPPLPPPVSQVDAAIGLLMPPLQTPVNLSVFCDHNYTVEDTMHQRKRIHQLEQQVEKLRKKLKTAQQRCRRQERQLEKLKEVVHFQKEKDDVSERGYVILPNDYFEIVEVPA [T59A], the THAP1 transcriptional activity came out at 0.736. The same measure for MVQSCSAYGCKNRYDKDKPVSFHKFPLTRPSLCKEWEAAVRRKNFKPTKYSSICSEHFCPDCFKRECNNKLLKENAVPTIFLCTEPHDKKEDLLEPQEQLPPPPLPPPVSQVDAAIGLLMPPLQTPVNLSVFCDHNYTVEDTMHQRKRIHQLEQQVEKLRKKLKTAQQRCRRQERQLEKLKEVVHFQKEKDDVSERGYVILPNDYFEIVEVPA [T59C]: 0.138. The same measure for MVQSCSAYGCKNRYDKDKPVSFHKFPLTRPSLCKEWEAAVRRKNFKPTKYSSICSEHFFPDCFKRECNNKLLKENAVPTIFLCTEPHDKKEDLLEPQEQLPPPPLPPPVSQVDAAIGLLMPPLQTPVNLSVFCDHNYTVEDTMHQRKRIHQLEQQVEKLRKKLKTAQQRCRRQERQLEKLKEVVHFQKEKDDVSERGYVILPNDYFEIVEVPA [T59F]: 0.186.

On to MVQSCSAYGCKNRYDKDKPVSFHKFPLTRPSLCKEWEAAVRRKNFKPTKYSSICSEHFIPDCFKRECNNKLLKENAVPTIFLCTEPHDKKEDLLEPQEQLPPPPLPPPVSQVDAAIGLLMPPLQTPVNLSVFCDHNYTVEDTMHQRKRIHQLEQQVEKLRKKLKTAQQRCRRQERQLEKLKEVVHFQKEKDDVSERGYVILPNDYFEIVEVPA [T59I], for which the THAP1 transcriptional activity was determined as 0.147. Consider MVQSCSAYGCKNRYDKDKPVSFHKFPLTRPSLCKEWEAAVRRKNFKPTKYSSICSEHFKPDCFKRECNNKLLKENAVPTIFLCTEPHDKKEDLLEPQEQLPPPPLPPPVSQVDAAIGLLMPPLQTPVNLSVFCDHNYTVEDTMHQRKRIHQLEQQVEKLRKKLKTAQQRCRRQERQLEKLKEVVHFQKEKDDVSERGYVILPNDYFEIVEVPA [T59K], for which the THAP1 transcriptional activity stood at 0.423.

For the variant MVQSCSAYGCKNRYDKDKPVSFHKFPLTRPSLCKEWEAAVRRKNFKPTKYSSICSEHFGPDCFKRECNNKLLKENAVPTIFLCTEPHDKKEDLLEPQEQLPPPPLPPPVSQVDAAIGLLMPPLQTPVNLSVFCDHNYTVEDTMHQRKRIHQLEQQVEKLRKKLKTAQQRCRRQERQLEKLKEVVHFQKEKDDVSERGYVILPNDYFEIVEVPA [T59G], the THAP1 transcriptional activity was 0.413. Consider MVQSCSAYGCKNRYDKDKPVSFHKFPLTRPSLCKEWEAAVRRKNFKPTKYSSICSEHFNPDCFKRECNNKLLKENAVPTIFLCTEPHDKKEDLLEPQEQLPPPPLPPPVSQVDAAIGLLMPPLQTPVNLSVFCDHNYTVEDTMHQRKRIHQLEQQVEKLRKKLKTAQQRCRRQERQLEKLKEVVHFQKEKDDVSERGYVILPNDYFEIVEVPA [T59N], for which the THAP1 transcriptional activity was 0.386. Turning to MVQSCSAYGCKNRYDKDKPVSFHKFPLTRPSLCKEWEAAVRRKNFKPTKYSSICSEHFWPDCFKRECNNKLLKENAVPTIFLCTEPHDKKEDLLEPQEQLPPPPLPPPVSQVDAAIGLLMPPLQTPVNLSVFCDHNYTVEDTMHQRKRIHQLEQQVEKLRKKLKTAQQRCRRQERQLEKLKEVVHFQKEKDDVSERGYVILPNDYFEIVEVPA [T59W], the THAP1 transcriptional activity stood at 0.0856.

Regarding MVQSCSAYGCKNRYDKDKPVSFHKFPLTRPSLCKEWEAAVRRKNFKPTKYSSICSEHFQPDCFKRECNNKLLKENAVPTIFLCTEPHDKKEDLLEPQEQLPPPPLPPPVSQVDAAIGLLMPPLQTPVNLSVFCDHNYTVEDTMHQRKRIHQLEQQVEKLRKKLKTAQQRCRRQERQLEKLKEVVHFQKEKDDVSERGYVILPNDYFEIVEVPA [T59Q], the THAP1 transcriptional activity was 0.605. As to MVQSCSAYGCKNRYDKDKPVSFHKFPLTRPSLCKEWEAAVRRKNFKPTKYSSICSEHFDPDCFKRECNNKLLKENAVPTIFLCTEPHDKKEDLLEPQEQLPPPPLPPPVSQVDAAIGLLMPPLQTPVNLSVFCDHNYTVEDTMHQRKRIHQLEQQVEKLRKKLKTAQQRCRRQERQLEKLKEVVHFQKEKDDVSERGYVILPNDYFEIVEVPA [T59D], the THAP1 transcriptional activity came to 0.292.

Regarding MVQSCSAYGCKNRYDKDKPVSFHKFPLTRPSLCKEWEAAVRRKNFKPTKYSSICSEHFTADCFKRECNNKLLKENAVPTIFLCTEPHDKKEDLLEPQEQLPPPPLPPPVSQVDAAIGLLMPPLQTPVNLSVFCDHNYTVEDTMHQRKRIHQLEQQVEKLRKKLKTAQQRCRRQERQLEKLKEVVHFQKEKDDVSERGYVILPNDYFEIVEVPA [P60A], the THAP1 transcriptional activity worked out at 0.758. On to MVQSCSAYGCKNRYDKDKPVSFHKFPLTRPSLCKEWEAAVRRKNFKPTKYSSICSEHFTDDCFKRECNNKLLKENAVPTIFLCTEPHDKKEDLLEPQEQLPPPPLPPPVSQVDAAIGLLMPPLQTPVNLSVFCDHNYTVEDTMHQRKRIHQLEQQVEKLRKKLKTAQQRCRRQERQLEKLKEVVHFQKEKDDVSERGYVILPNDYFEIVEVPA [P60D], for which the THAP1 transcriptional activity came to 0.532. Turning to MVQSCSAYGCKNRYDKDKPVSFHKFPLTRPSLCKEWEAAVRRKNFKPTKYSSICSEHFTEDCFKRECNNKLLKENAVPTIFLCTEPHDKKEDLLEPQEQLPPPPLPPPVSQVDAAIGLLMPPLQTPVNLSVFCDHNYTVEDTMHQRKRIHQLEQQVEKLRKKLKTAQQRCRRQERQLEKLKEVVHFQKEKDDVSERGYVILPNDYFEIVEVPA [P60E], the THAP1 transcriptional activity is 0.745.

For MVQSCSAYGCKNRYDKDKPVSFHKFPLTRPSLCKEWEAAVRRKNFKPTKYSSICSEHFTCDCFKRECNNKLLKENAVPTIFLCTEPHDKKEDLLEPQEQLPPPPLPPPVSQVDAAIGLLMPPLQTPVNLSVFCDHNYTVEDTMHQRKRIHQLEQQVEKLRKKLKTAQQRCRRQERQLEKLKEVVHFQKEKDDVSERGYVILPNDYFEIVEVPA [P60C], the THAP1 transcriptional activity stood at 0.174.
